By IC50 is commonly meant the midpoint of a concentration-inhibition curve. Lower therefore signals inhibition by little substance.

The values below come from US20140087995A1 (published 2014).

For this assay, the target named is T1, human amylin receptor (human, UniProt P30988 25-474; O60896 24-148, limits assumed).
T1 construct: whole, on cells; Used as cell membranes prepared from the Amylin 3(a)/CRE-luc BHK cells (Assay V); also called hAmylin-R; hAmylinR
T1 sequence (looked up) 1: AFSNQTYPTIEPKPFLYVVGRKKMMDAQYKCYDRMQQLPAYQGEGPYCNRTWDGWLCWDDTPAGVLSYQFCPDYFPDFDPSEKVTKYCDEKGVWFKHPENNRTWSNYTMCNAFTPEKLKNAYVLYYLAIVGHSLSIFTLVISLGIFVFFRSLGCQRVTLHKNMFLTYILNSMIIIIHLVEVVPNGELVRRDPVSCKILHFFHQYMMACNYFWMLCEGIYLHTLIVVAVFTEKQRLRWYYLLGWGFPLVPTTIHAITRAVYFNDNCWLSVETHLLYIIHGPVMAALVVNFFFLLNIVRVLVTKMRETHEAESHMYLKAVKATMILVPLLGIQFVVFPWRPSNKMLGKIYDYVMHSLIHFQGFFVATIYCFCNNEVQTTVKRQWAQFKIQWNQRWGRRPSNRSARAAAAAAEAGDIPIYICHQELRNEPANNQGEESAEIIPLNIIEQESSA
T1 sequence (looked up) 2: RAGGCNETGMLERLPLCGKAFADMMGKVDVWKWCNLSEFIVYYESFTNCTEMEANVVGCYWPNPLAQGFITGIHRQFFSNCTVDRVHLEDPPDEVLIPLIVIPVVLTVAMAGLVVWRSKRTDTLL
In words: SPA competition vs 125I-rat amylin, membranes of amylin 3(a) receptor BHK cells (Assay V). Here is the method: The binding assay was performed using scintillation proximity assay (SPA) beads (RPNQ0001) from PerkinElmer and cell membranes from the Amylin 3(a)/CRE-luc cells (as described in Assay (II)) were used. Membranes were prepared in the following way; the cells were rinsed with PBS and incubated with Versene for approximately 5 min before harvesting. The cells were flushed with PBS and the cell-suspension was centrifuged for 5 min at 1000 rpm. Cells were homogenized (ultrathurrax) in a buffer containing 20 mM Na-HEPES and 10 mM EDTA (pH 7.4) and centrifuged at 20.000 rpm for 15 min. The resulting pellet was resuspended, homogenized and centrifuged (20.000 rpm, 15 min) in a buffer containing 20 mM Na-HEPES and 0.1 mM EDTA (pH 7.4, buffer 2). The resulting pellet was resuspended in buffer 2 and protein concentration was measured (BCA protein Assay, Pierce). The homogenate was kept cold during the whole procedure. The membranes were kept at −80° C. until use. The assay was performed in a 384 well Optiplate (PerkinElmer) in a total volume of 40 ul. Membranes were mixed with SPA beads. Final concentration of membranes 35 ng/μL final and SPA beads was 0.05 mg/well. Test-compounds were dissolved in DMSO and further diluted in assay buffer (50 mM Hepes, pH 7.4, 1 mM CaCl2, 5 mM MgCl₂, 0.1% OA and 0.02% Tween20). […] The final mixture was incubated with shaking at 400 rpm for 120 min at 25° C. prior to centrifugation (1500 rpm, 10 min). Samples were analyzed on TopCounter™ (Packard). The IC₅₀ was calculated using (one site binding competition analysis) GraphPad Prism5 as a measure of receptor affinity.

Numbered stars: 1 amine (or outer) side, 2 acyl side, 3 side chain; on linkers, the order of the positions; unused ones are H or OH. Bridge positions count the residues as written; N and C are the ends. Side chains are listed from the residue outwards. Ends that are not written are not given here. * marks the point of attachment. C20 diacid = O=C(O)CCCCCCCCCCCCCCCCCCC(=O)*; γGlu = O=C(O)[C@H](CCC(=O)[*:2])N[*:1]; AEEA = NCCOCCOCC(=O)O

B1: N^ε1-[2-[2-[2-[[2-[2-[2-[[(4S)-4-carboxy-4-(19-carboxynonadecanoylamino)butanoyl]amino]ethoxy]ethoxy]acetyl]amino]ethoxy]ethoxy]acetyl]-[Arg17,Pro21,Pro27,Glu35 … (peptide)
peptide: K([AEEA-AEEA-γGlu-C20 diacid])CNTATCATQRLANFLRHSSPNFGAIPSSTNVGSETY-NH2
modifications: disulfide 2-7; N-terminus assumed
SMILES: CC[C@H](C)[C@H](NC(=O)[C@H](C)NC(=O)CNC(=O)[C@H](Cc1ccccc1)NC(=O)[C@H](CC(N)=O)NC(=O)[C@@H]1CCCN1C(=O)[C@H](CO)NC(=O)[C@H](CO)NC(=O)[C@H](Cc1c[nH]cn1)NC(=O)[C@H](CCCNC(=N)N)NC(=O)[C@H](CC(C)C)NC(=O)[C@H](Cc1ccccc1)NC(=O)[C@H](CC(N)=O)NC(=O)[C@H](C)NC(=O)[C@H](CC(C)C)NC(=O)[C@H](CCCNC(=N)N)NC(=O)[C@H](CCC(N)=O)NC(=O)[C@@H](NC(=O)[C@H](C)NC(=O)[C@@H]1CSSC[C@H](NC(=O)[C@@H](N)CCCCNC(=O)COCCOCCNC(=O)COCCOCCNC(=O)CC[C@H](NC(=O)CCCCCCCCCCCCCCCCCCC(=O)O)C(=O)O)C(=O)N[C@@H](CC(N)=O)C(=O)N[C@@H]([C@@H](C)O)C(=O)N[C@@H](C)C(=O)N[C@@H]([C@@H](C)O)C(=O)N1)[C@@H](C)O)C(=O)N1CCC[C@H]1C(=O)N[C@@H](CO)C(=O)N[C@@H](CO)C(=O)N[C@H](C(=O)N[C@@H](CC(N)=O)C(=O)N[C@H](C(=O)NCC(=O)N[C@@H](CO)C(=O)N[C@@H](CCC(=O)O)C(=O)N[C@H](C(=O)N[C@@H](Cc1ccc(O)cc1)C(N)=O)[C@@H](C)O)C(C)C)[C@@H](C)O
notes: also called compound 25
Molecule B1 registered an IC50 of 0.768 nM.

B2: N^ε1-[(4S)-4-carboxy-4-(19-carboxynonadecanoylamino)butanoyl]-[Arg17,Pro21,Pro27,Glu35]-h-amylin (peptide)
peptide: K([γGlu-C20 diacid])CNTATCATQRLANFLRHSSPNFGAIPSSTNVGSETY-NH2
modifications: disulfide 2-7; N-terminus assumed
SMILES: CC[C@H](C)[C@H](NC(=O)[C@H](C)NC(=O)CNC(=O)[C@H](Cc1ccccc1)NC(=O)[C@H](CC(N)=O)NC(=O)[C@@H]1CCCN1C(=O)[C@H](CO)NC(=O)[C@H](CO)NC(=O)[C@H](Cc1c[nH]cn1)NC(=O)[C@H](CCCNC(=N)N)NC(=O)[C@H](CC(C)C)NC(=O)[C@H](Cc1ccccc1)NC(=O)[C@H](CC(N)=O)NC(=O)[C@H](C)NC(=O)[C@H](CC(C)C)NC(=O)[C@H](CCCNC(=N)N)NC(=O)[C@H](CCC(N)=O)NC(=O)[C@@H](NC(=O)[C@H](C)NC(=O)[C@@H]1CSSC[C@H](NC(=O)[C@@H](N)CCCCNC(=O)CC[C@H](NC(=O)CCCCCCCCCCCCCCCCCCC(=O)O)C(=O)O)C(=O)N[C@@H](CC(N)=O)C(=O)N[C@@H]([C@@H](C)O)C(=O)N[C@@H](C)C(=O)N[C@@H]([C@@H](C)O)C(=O)N1)[C@@H](C)O)C(=O)N1CCC[C@H]1C(=O)N[C@@H](CO)C(=O)N[C@@H](CO)C(=O)N[C@H](C(=O)N[C@@H](CC(N)=O)C(=O)N[C@H](C(=O)NCC(=O)N[C@@H](CO)C(=O)N[C@@H](CCC(=O)O)C(=O)N[C@H](C(=O)N[C@@H](Cc1ccc(O)cc1)C(N)=O)[C@@H](C)O)C(C)C)[C@@H](C)O
notes: also called compound 27
B2 registered an IC50 of 0.837 nM.

B3: N^ε1-[2-[2-[2-[[(4S)-4-carboxy-4-(19-carboxynonadecanoylamino)butanoyl]amino]ethoxy]ethoxy]acetyl]-[Arg17,Pro21,Pro27,Glu35]-h-amylin (peptide)
peptide: K([AEEA-γGlu-C20 diacid])CNTATCATQRLANFLRHSSPNFGAIPSSTNVGSETY-NH2
modifications: disulfide 2-7; N-terminus assumed
SMILES: CC[C@H](C)[C@H](NC(=O)[C@H](C)NC(=O)CNC(=O)[C@H](Cc1ccccc1)NC(=O)[C@H](CC(N)=O)NC(=O)[C@@H]1CCCN1C(=O)[C@H](CO)NC(=O)[C@H](CO)NC(=O)[C@H](Cc1c[nH]cn1)NC(=O)[C@H](CCCNC(=N)N)NC(=O)[C@H](CC(C)C)NC(=O)[C@H](Cc1ccccc1)NC(=O)[C@H](CC(N)=O)NC(=O)[C@H](C)NC(=O)[C@H](CC(C)C)NC(=O)[C@H](CCCNC(=N)N)NC(=O)[C@H](CCC(N)=O)NC(=O)[C@@H](NC(=O)[C@H](C)NC(=O)[C@@H]1CSSC[C@H](NC(=O)[C@@H](N)CCCCNC(=O)COCCOCCNC(=O)CC[C@H](NC(=O)CCCCCCCCCCCCCCCCCCC(=O)O)C(=O)O)C(=O)N[C@@H](CC(N)=O)C(=O)N[C@@H]([C@@H](C)O)C(=O)N[C@@H](C)C(=O)N[C@@H]([C@@H](C)O)C(=O)N1)[C@@H](C)O)C(=O)N1CCC[C@H]1C(=O)N[C@@H](CO)C(=O)N[C@@H](CO)C(=O)N[C@H](C(=O)N[C@@H](CC(N)=O)C(=O)N[C@H](C(=O)NCC(=O)N[C@@H](CO)C(=O)N[C@@H](CCC(=O)O)C(=O)N[C@H](C(=O)N[C@@H](Cc1ccc(O)cc1)C(N)=O)[C@@H](C)O)C(C)C)[C@@H](C)O
notes: also called compound 26
B3 yielded an IC50 of 0.532 nM. Against the preceding molecule, the IC50 is about 1.6-fold lower.

B4: N^ε1-[(4S)-4-carboxy-4-(19-carboxynonadecanoylamino)butanoyl]-[Arg17,Pro21,Pro27,Lys35]-h-amylin (peptide)
peptide: K([γGlu-C20 diacid])CNTATCATQRLANFLRHSSPNFGAIPSSTNVGSKTY-NH2
modifications: disulfide 2-7; N-terminus assumed
SMILES: CC[C@H](C)[C@H](NC(=O)[C@H](C)NC(=O)CNC(=O)[C@H](Cc1ccccc1)NC(=O)[C@H](CC(N)=O)NC(=O)[C@@H]1CCCN1C(=O)[C@H](CO)NC(=O)[C@H](CO)NC(=O)[C@H](Cc1c[nH]cn1)NC(=O)[C@H](CCCNC(=N)N)NC(=O)[C@H](CC(C)C)NC(=O)[C@H](Cc1ccccc1)NC(=O)[C@H](CC(N)=O)NC(=O)[C@H](C)NC(=O)[C@H](CC(C)C)NC(=O)[C@H](CCCNC(=N)N)NC(=O)[C@H](CCC(N)=O)NC(=O)[C@@H](NC(=O)[C@H](C)NC(=O)[C@@H]1CSSC[C@H](NC(=O)[C@@H](N)CCCCNC(=O)CC[C@H](NC(=O)CCCCCCCCCCCCCCCCCCC(=O)O)C(=O)O)C(=O)N[C@@H](CC(N)=O)C(=O)N[C@@H]([C@@H](C)O)C(=O)N[C@@H](C)C(=O)N[C@@H]([C@@H](C)O)C(=O)N1)[C@@H](C)O)C(=O)N1CCC[C@H]1C(=O)N[C@@H](CO)C(=O)N[C@@H](CO)C(=O)N[C@H](C(=O)N[C@@H](CC(N)=O)C(=O)N[C@H](C(=O)NCC(=O)N[C@@H](CO)C(=O)N[C@@H](CCCCN)C(=O)N[C@H](C(=O)N[C@@H](Cc1ccc(O)cc1)C(N)=O)[C@@H](C)O)C(C)C)[C@@H](C)O
notes: also called compound 35
B4 yielded an IC50 of 0.97 nM.

B5: N^ε1-[2-[2-[2-[[(4S)-4-carboxy-4-(19-carboxynonadecanoylamino)butanoyl]amino]ethoxy]ethoxy]acetyl]-[Arg17,Pro21,Pro27,Arg35]-h-amylin (peptide)
peptide: K([AEEA-γGlu-C20 diacid])CNTATCATQRLANFLRHSSPNFGAIPSSTNVGSRTY-NH2
modifications: disulfide 2-7; N-terminus assumed
SMILES: CC[C@H](C)[C@H](NC(=O)[C@H](C)NC(=O)CNC(=O)[C@H](Cc1ccccc1)NC(=O)[C@H](CC(N)=O)NC(=O)[C@@H]1CCCN1C(=O)[C@H](CO)NC(=O)[C@H](CO)NC(=O)[C@H](Cc1c[nH]cn1)NC(=O)[C@H](CCCNC(=N)N)NC(=O)[C@H](CC(C)C)NC(=O)[C@H](Cc1ccccc1)NC(=O)[C@H](CC(N)=O)NC(=O)[C@H](C)NC(=O)[C@H](CC(C)C)NC(=O)[C@H](CCCNC(=N)N)NC(=O)[C@H](CCC(N)=O)NC(=O)[C@@H](NC(=O)[C@H](C)NC(=O)[C@@H]1CSSC[C@H](NC(=O)[C@@H](N)CCCCNC(=O)COCCOCCNC(=O)CC[C@H](NC(=O)CCCCCCCCCCCCCCCCCCC(=O)O)C(=O)O)C(=O)N[C@@H](CC(N)=O)C(=O)N[C@@H]([C@@H](C)O)C(=O)N[C@@H](C)C(=O)N[C@@H]([C@@H](C)O)C(=O)N1)[C@@H](C)O)C(=O)N1CCC[C@H]1C(=O)N[C@@H](CO)C(=O)N[C@@H](CO)C(=O)N[C@H](C(=O)N[C@@H](CC(N)=O)C(=O)N[C@H](C(=O)NCC(=O)N[C@@H](CO)C(=O)N[C@@H](CCCNC(=N)N)C(=O)N[C@H](C(=O)N[C@@H](Cc1ccc(O)cc1)C(N)=O)[C@@H](C)O)C(C)C)[C@@H](C)O
notes: also called compound 38
On to B5, for which the IC50 worked out at 0.249 nM.
